39 molecules from US20190060431A1 (IMMATICS BIOTECHNOLOGIES, published 2019) can be followed below.

For assay [1], the target named is T1, HLA-A*02:01 (human).
T1 construct: MHC class I monomer in the UV-ligand exchange assay, captured on streptavidin plates; also called peptide-receptive MHC molecules
Briefly: UV-ligand exchange, anti-β2m ELISA; grade of peptide exchange yield (legend: ≥50 = +++). From the text:
(§1) Candidate peptides for T cell based therapies according to the present invention were further tested for their MHC binding capacity (affinity). The individual peptide-MHC complexes were produced by UV-ligand exchange, where a UV-sensitive peptide is cleaved upon UV-irradiation, and exchanged with the peptide of interest as analyzed. Only peptide candidates that can effectively bind and stabilize the peptide-receptive MHC molecules prevent dissociation of the MHC complexes. To determine the yield of the exchange reaction, an ELISA was performed based on the detection of the light chain (β2m) of stabilized MHC complexes. The assay was performed as generally described in Rodenko et al. (Rodenko et al., 2006).
(§2) 96 well MAXISorp plates (NUNC) were coated over night with 2 ug/ml streptavidin in PBS at room temperature, washed 4× and blocked for 1 h at 37° C. in 2% BSA containing blocking buffer. Refolded HLA-A*02:01/MLA-001 monomers served as standards, cov-ering the range of 15-500 ng/ml. Peptide-MHC monomers of the UV-exchange reaction were diluted 100-fold in blocking buffer. Samples were incubated for 1 h at 37° C., washed four times, incubated with 2 ug/ml HRP conjugated anti-β2m for 1 h at 37° C., washed again and detected with TMB solution that is stopped with NH2SO4. Absorp-tion was measured at 450 nm. Candidate peptides that show a high exchange yield (preferably higher than 50%, most preferred higher than 75%) are generally preferred for a generation and production of antibodies or fragments thereof, and/or T cell receptors or fragments thereof, as they show sufficient avidity to the MHC molecules and prevent dissociation of the MHC complexes.

For assay [2], the target named is T1, HLA-A*02:01. Briefly: UV-ligand exchange, anti-β2m ELISA; grade of peptide exchange yield (legend: ≥20% = ++).
Description: as §1, §2
In general terms: ELISA stands for enzyme-linked immunosorbent assay.

Assay [3] deals with T1, HLA-A*02:01. Briefly: UV-ligand exchange, anti-β2m ELISA; grade of peptide exchange yield (legend: ≥75% = ++++).
Description: as §1, §2

Where no end group is shown, it is not given here. [ ]: non-standard residue; d: D form. pT = C[C@@H](OP(=O)(O)O)[C@H](N)C(=O)O

As to FLDEEVKLI [FLDEEVKLI (SEQ ID NO: 43, FTL)], in the assay with HLA-A*02:01 [1], the peptide exchange yield lay within 50 to 75%.
Consider ILFDVVVFL [ILFDVVVFL (SEQ ID NO: 25, C4orf3)], for which the peptide exchange yield with HLA-A*02:01 [2] was 20 to 50%.
Take KMPEHISTV [KMPEHISTV (SEQ ID NO: 1, CILP)]: the peptide exchange yield with HLA-A*02:01 [1] lay within 50 to 75%.
Molecule YIDGLESRV [YIDGLESRV (SEQ ID NO: 22, CREB3L4)] displayed a peptide exchange yield with HLA-A*02:01 [1] of 50 to 75%.
The molecule SLFSVPFFL [SLFSVPFFL (SEQ ID NO: 28, TM9SF1)] displayed a peptide exchange yield with HLA-A*02:01 [3] not below 75%.
With SLLTEPALV [SLLTEPALV (SEQ ID NO: 21, TBC1D9)], the peptide exchange yield in the assay with HLA-A*02:01 [1] is 50 to 75%.
On the same count and under the same terms, the figure for ALAGSSPQV [ALAGSSPQV (SEQ ID NO: 2, CNTD2)] is 50 to 75%.
Regarding KAFPFYNTV [KAFPFYNTV (SEQ ID NO: 12, NAIP)], the peptide exchange yield with HLA-A*02:01 [2] fell in the range of 20 to 50%.
With ALTALQNYL [ALTALQNYL (SEQ ID NO: 6, TFAP2B)], the peptide exchange yield with HLA-A*02:01 [1] lay within 50 to 75%.
With GLVATLQSL [GLVATLQSL (SEQ ID NO: 32, IFI6)], the peptide exchange yield in the assay with HLA-A*02:01 [1] fell in the range of 50 to 75%.
For the molecule KLLDMELEM [KLLDMELEM (SEQ ID NO: 39, FAH)], the peptide exchange yield in the assay with HLA-A*02:01 [3] was not below 75%.
SLNDQGYLL [SLNDQGYLL (SEQ ID NO: 41, MCM8)] gave a peptide exchange yield with HLA-A*02:01 [1] of 50 to 75%.
Same read-out and setting: with GLHSLPPEV [GLHSLPPEV (SEQ ID NO: 10, LRRC8E)] the figure was 50 to 75%.
SMMGLLTNL [SMMGLLTNL (SEQ ID NO: 16, ESR1)] came in with a peptide exchange yield with HLA-A*02:01 [3] not below 75%.
Take ALEA[pT]QLYL [ALEAUQLYL (SEQ ID NO: 29, DEPDC4)]: the peptide exchange yield with HLA-A*02:01 [1] fell in the range of 50 to 75%.
Take TIASSIEKA [TIASSIEKA (SEQ ID NO: 17, STPG2)]: in the assay with HLA-A*02:01 [2], the peptide exchange yield was 20 to 50%.
Same read-out and setting: the figure for GLSYIYNTV [GLSYIYNTV (SEQ ID NO: 31, COG6)] is 20 to 50%; for ILTELPPGV [ILTELPPGV (SEQ ID NO: 33, ZNF407)] it is 20 to 50%.
In the assay with HLA-A*02:01 [1], YILLQSPQL [YILLQSPQL (SEQ ID NO: 18, MUC6)] had a peptide exchange yield of 50 to 75%.
Turning to FLSSEAANV [FLSSEAANV (SEQ ID NO: 30, TNFAIP2)], the peptide exchange yield with HLA-A*02:01 [2] lay in the range of 20 to 50%.
Same read-out and setting: with ALEEQLHQV [ALEEQLHQV (SEQ ID NO: 19, KRT25, KRT28, KRT27)] the figure was 20 to 50%.
Molecule KLYEGIPVL [KLYEGIPVL (SEQ ID NO: 13, NEK10)] yielded a peptide exchange yield in the assay with HLA-A*02:01 [2] of 20 to 50%.
SLLSEIQAL [SLLSEIQAL (SEQ ID NO: 35, AKAP9, PCNT)] came in with a peptide exchange yield in the assay with HLA-A*02:01 [3] not below 75%.
In the assay with HLA-A*02:01 [3], FLVEHVLTL [FLVEHVLTL (SEQ ID NO: 42, SLC39A6)] displayed a peptide exchange yield not below 75%.
Consider SLFPSLVVV [SLFPSLVVV (SEQ ID NO: 15, PLEC)], for which the peptide exchange yield with HLA-A*02:01 [1] is 50 to 75%.
Molecule TLLGLAVNV [TLLGLAVNV (SEQ ID NO: 36, CHPT1)] gave a peptide exchange yield with HLA-A*02:01 [3] not below 75%.
SLADAVEKV [SLADAVEKV (SEQ ID NO: 23, CCDC122)]: in the assay with HLA-A*02:01 [1], the peptide exchange yield fell in the range of 50 to 75%.
In turn, GLLPTSVSPRV [GLLPTSVSPRV (SEQ ID NO: 11, SCUBE2)] registered a peptide exchange yield with HLA-A*02:01 [2] of 20 to 50%.
GLLGFQAEA [GLLGFQAEA (SEQ ID NO: 24, MAGED1)]: in the assay with HLA-A*02:01 [3], the peptide exchange yield is not below 75%.
In the assay with HLA-A*02:01 [1], KQLELELEV [KQLELELEV (SEQ ID NO: 14, MUC6)] came in with a peptide exchange yield of 50 to 75%.
On the same count and under the same terms, with SLAEPRVSV [SLAEPRVSV (SEQ ID NO: 27, FASN)] the figure was 50 to 75%.
In the assay with HLA-A*02:01 [2], SLVEGEAVHLA [SLVEGEAVHLA (SEQ ID NO: 4, TFAP2E, TFAP2A, TFAP2B, TFAP2C)] had a peptide exchange yield of 20 to 50%.
FMSKLVPAI [FMSKLVPAI (SEQ ID NO: 9, TPRG1)] had a peptide exchange yield with HLA-A*02:01 [1] of 50 to 75%.
As for FIIPTVATA [FIIPTVATA (SEQ ID NO: 7, ABCC11)], in the assay with HLA-A*02:01 [3], the peptide exchange yield was not below 75%.
Consider ALNPVIYTV [ALNPVIYTV (SEQ ID NO: 5, DRD4)], for which the peptide exchange yield with HLA-A*02:01 [2] lay within 20 to 50%.
With LLM[pT]VAGLKL [LLMUVAGLKL (SEQ ID NO: 38, PCNXL3)], the peptide exchange yield with HLA-A*02:01 [3] is not below 75%.
Still for that read-out and setting: with GLVQSLTSI [GLVQSLTSI (SEQ ID NO: 8, ABCC11)] the figure was not below 75%.
Molecule SLAWDVPAA [SLAWDVPAA (SEQ ID NO: 26, FASN)] gave a peptide exchange yield in the assay with HLA-A*02:01 [1] of 50 to 75%.
In the case of FSFPVSVGV [FSFPVSVGV (SEQ ID NO: 20, DUSP4)], the peptide exchange yield in the assay with HLA-A*02:01 [1] lay within 50 to 75%.
